Laboratory results from patent US20200270588A1, “GLUCOSYL TRANSFERASE POLYPEPTIDES AND METHODS OF USE” (Syngenta Participations AG, priority 2017, published 2020).
Changes are numbered by the printed parent chain. Numbers in names are those of the source.

B1: H375Y: additional mutation in SEQ ID No: 17 (protein)
chain: MASSRTGAGAGGRVVVFPFPFQGHFNPVMRLARALHARGLAITVFHSGALDPADYPADYRFVPVTVEADPKLLASEDIAAIVTTLNASCDAPFRARLSALLAAEGRDSVRCVFTDVVWNAVLTASSDLGVPALGMMTASAASLRDYMAYRTLIDKGYLPVKEERKEDPVPELPPYLVKDLLRVDTSDLEEFAELLARTVTAARRASGLIFNTFPLIETDTLAEIHKALSVPVFAVAPLNKLVPTATASLHGVVQADRGCLQWLDTQQPGSVLYVSFGSFAAMDPHEFVELAWGLADSKRPFVWVVRPNLIRGFESGALPDGVEDEVRGRGIVVKWAPQEEVLAHPAVGGFLTHNGWNSTVEAISEGVPMVCCPRYGDQFGNMRYVCDVWKVGTELVGEQLERGQVKAAIDRLFGTKEGEEIKERMKEFKIAAAKGIGIGVDVDETASPRTDLTDLVDLIKSF
modifications: Mutated Zea mays Bx9 protein sequence
B2: A431P: additional mutation in SEQ ID No: 17 (protein)
chain: B1 chain with Y375H, A431P
modifications: Mutated Zea mays Bx9 protein sequence
B3: W303L: additional mutation in SEQ ID No: 17 (protein)
chain: B1 chain with W303L, Y375H
modifications: Mutated Zea mays Bx9 protein sequence
B4: I216Y: additional mutation in SEQ ID No: 17 (protein)
chain: B1 chain with I216Y, Y375H
modifications: Mutated Zea mays Bx9 protein sequence
B5: I430P: additional mutation in SEQ ID No: 17 (protein)
chain: B1 chain with Y375H, I430P
modifications: Mutated Zea mays Bx9 protein sequence
B6: A234C: additional mutation in SEQ ID No: 17 (protein)
chain: B1 chain with A234C, Y375H
modifications: Mutated Zea mays Bx9 protein sequence
B7: L215D: additional mutation in SEQ ID No: 17 (protein)
chain: B1 chain with L215D, Y375H
modifications: Mutated Zea mays Bx9 protein sequence
B8: F213W: additional mutation in SEQ ID No: 17 (protein)
chain: B1 chain with F213W, Y375H
modifications: Mutated Zea mays Bx9 protein sequence
B9: P214D: additional mutation in SEQ ID No: 17 (protein)
chain: B1 chain with P214D, Y375H
modifications: Mutated Zea mays Bx9 protein sequence
B10: R424P: additional mutation in SEQ ID No: 17 (protein)
chain: B1 chain with Y375H, R424P
modifications: Mutated Zea mays Bx9 protein sequence
B11: M425F: additional mutation in SEQ ID No: 17 (protein)
chain: B1 chain with Y375H, M425F
modifications: Mutated Zea mays Bx9 protein sequence
B12: K429S: additional mutation in SEQ ID No: 17 (protein)
chain: B1 chain with Y375H, K429S
modifications: Mutated Zea mays Bx9 protein sequence
B13: G418Y: additional mutation in SEQ ID No: 17 (protein)
chain: B1 chain with Y375H, G418Y
modifications: Mutated Zea mays Bx9 protein sequence
B14: P284F: additional mutation in SEQ ID No: 17 (protein)
chain: B1 chain with P284F, Y375H
modifications: Mutated Zea mays Bx9 protein sequence

Test: UDP luminescence plate assay of E. coli extracts, mutants within SEQ ID No: 17, 2 mM metribuzin
Format: biochemical, Zea mays
Conditions: for metribuzin signal relative to the SEQ ID No:17 control (first parentheses) / ratio of metribuzin to DMSO signal (second parentheses) / SIGNAL: metribuzin signal of mutant divided by the signal of the SEQ ID No. 17 control / luminescence signal observed with 2 mM metribuzin: 2 mM metribuzin; for metribuzin signal relative to the SEQ ID No:17 control (first parentheses) / ratio of metribuzin to DMSO signal (second parentheses): additional mutation in SEQ ID No: 17; for SIGNAL: metribuzin signal of mutant divided by the signal of the SEQ ID No. 17 control: relative to SEQ ID No: 17 control; for luminescence signal in the DMSO control / luminescence signal observed with 2 mM metribuzin: additional mutations within SEQ ID No: 17; for luminescence signal in the DMSO control: DMSO in place of metribuzin; for luminescence signal observed with 2 mM metribuzin: control = SEQ ID No: 17
Experimental: Activities observed with metribuzin were generally lower in magnitude than seen with herbicide V in the previous examples. For example, in one plate assay run with 2 mM metribuzin using 5 ul of diluted extract of plate-grown BL21DE3 cells expressing w/t bx9 and assayed for 40 minutes (as described in Example 2) the UDP-Glo luminescence signal was ˜3.4 E6 as compared with ˜2.3E6 in the DMSO control and ˜1.7E6 in the H24A null mutant control. […] It was therefore important to assess potential improvements in the metribuzin activity of the various mutants relative to the wild type bx9 enzyme based not only on the H24A null activity control but also based upon controls with DMSO in place of metribuzin acceptor substrate. In some plate assays (using more dilute extracts) the metribuzin signals from the w/t enzyme was the same or barely greater than the DMSO control. Additionally, some mutations gave an increase in the ‘background’ UDP-glucose hydrolysis activity with just DMSO present that was the same or similar to the magnitude of the increase in signal seen with metribuzin. In these instances it is therefore uncertain from just this UDP-Glo assay method whether the specific metribuzin signal (glucosylation of metribuzin) is improved or not i.e. the signal seen with metribuzin may or may not all or to a large part be attributable to increased background hydrolysis). […] Thus the ratio of the metribuzin to DMSO signal as well as the increase in signal relative to the w/t bx9 is used to help distinguish those mutations most likely to offer the highest activity to metribuzin. A follow up assay monitored by, for example, LC MS is one method to distinguish these cases more quantitatively. The tables below summarise the results from two different sets of luminescence plate assays to detect single mutations giving improvements in the magnitude of the signal with metribuzin relative to w/t bx9 and/or the apparent specificity for metribuzin as measured by the deviation of the ratio of metribuzin to DMSO control activity from the bx9 w/t value of around unity.
A further separate screen was carried out to explore a library of additional mutations at various positions within the context of SEQ ID No: 17 for improved metribuzin activity. These were assayed, assessed and scored as above. […] These were S75K (2.5)(1.25), A236G (4.0)(1.15), A433V (3.3)(9.0) and R449C (1.8)(1.2).
A yet further and more comprehensive screen was carried out to explore saturation mutagenesis at all remaining amino acid positions within the context of SEQ ID No:17 for improved metribuzin activity. Again these were assayed, assessed and scored as above and the results of (out of the thousands screened) of the subset that were of interest are summarized in Table 16.

| Molecule | metribuzin signal relative to the SEQ ID No:17 control (first parentheses) | ratio of metribuzin to DMSO signal (second parentheses) | SIGNAL: metribuzin signal of mutant divided by the signal of the SEQ ID No. 17 control | luminescence signal in the DMSO control | luminescence signal observed with 2 mM metribuzin |
| --- | --- | --- | --- | --- | --- |
| B1 | 3.8 | 2.33 | 3.80 | 2.97E+06 | 6.93E+06 |
| B2 | 2.8 | 1.32 | 2.81 | 3.87E+06 | 5.12E+06 |
| B3 | 2.3 | 1.35 | 2.30 | 3.10E+06 | 4.20E+06 |
| B4 | 3.5 | 1.33 | 3.50 | 4.79E+06 | 6.38E+06 |
| B5 | 2.8 | 1.34 | 2.82 | 3.83E+06 | 5.15E+06 |
| B6 | 3.0 | 1.29 | 2.96 | 4.20E+06 | 5.40E+06 |
| B7 | 3.1 | 1.34 | 3.14 | 4.26E+06 | 5.72E+06 |
| B8 | 4.7 | 1.24 | 4.75 | 6.96E+06 | 8.66E+06 |
| B9 | 3.7 | 1.34 | 3.66 | 4.99E+06 | 6.67E+06 |
| B10 | 2.5 | 1.14 | 2.51 | 4.02E+06 | 4.58E+06 |
| B11 | 4.1 | 1.96 | 4.13 | 3.84E+06 | 7.53E+06 |
| B12 | 2.4 | 1.30 | 2.38 | 3.34E+06 | 4.34E+06 |
| B13 | 3.1 | 1.47 | 3.11 | 3.86E+06 | 5.67E+06 |
| B14 | 1.8 | 1.29 | 1.81 | 2.55E+06 | 3.30E+06 |
